Test results reported in patent publication KR20230038028A (dated 2023).

Key:
Experiment in all cases: western blot of E. coli lysate supernatant
[1] = biological target: T1, His-S2p2(서열 686~1207) (SARS-CoV-2, UniProt P0DTC2 686-1207)
T1 construct: range 686-1207

[2] = biological target: T2, His-S2p2-1(서열 686~1177 아미노산) (SARS-CoV-2, UniProt P0DTC2 686-1177)
T2 construct: range 686-1177

[3] = biological target: T3, S2p2-2(서열 686~1144) (SARS-CoV-2, UniProt P0DTC2 686-1144)
T3 construct: range 686-1144

Measured: binding result

B1: 항-스파이크2(Spike2, S2) 단일클론 항체 4A5 (antibody, V domains shown)
VH: QVKLEQSGPGILQPSQTLSLTCSFSGFSLSTSGMGVSWIRQSSGKGLEWLTHIYWDDDKRYNPSLKSRLTISKDTSRNQVFLKITSVDTADTATYYCARRRMITGLYYAMDYWGQGTSVTVSS
VL: DIVMTQSTLSLPVSFGDQVSISCRSSQSLANSYGITYLSWYLHKPGQSPQLLIYGISNRFSGVPDRFSGSGSGTDFTLKISTIKPEDLGMYYCLQGTHQPWTFGGGTKLEIKR
notes: also called 4A5 항체; 항-S2 항체 4A5
binds: all assays above
